How the values were obtained:
[1] = biological target: phosphorylated 14-3-3ζ-18E6 chimera (14-3-3ζ∆C-GGGG-18E6 PBM) (human | human papillomavirus type 18) (UniProt P63104); experiment: crystal structure
14-3-3η = 14-3-3η (UniProt Q04917); experiment: competitive FP, FITC-HSPB6 phosphopeptide tracer; details: reference: unphosphorylated 18E6 peptide; sites T156
14-3-3ζ = 14-3-3ζ (UniProt P63104); experiment: competitive FP, FITC-HSPB6 phosphopeptide tracer; details: reference: unphosphorylated 18E6 peptide; sites T156
14-3-3γ = 14-3-3γ (UniProt P61981); experiment: competitive FP, FITC-HSPB6 phosphopeptide tracer; details: reference: unphosphorylated 18E6 peptide; sites T156
14-3-3β = 14-3-3β (UniProt P31946); experiment: competitive FP, FITC-HSPB6 phosphopeptide tracer; details: reference: unphosphorylated 18E6 peptide; sites T156
14-3-3τ = 14-3-3τ (UniProt P27348); experiment: competitive FP, FITC-HSPB6 phosphopeptide tracer; details: reference: unphosphorylated 18E6 peptide; sites T156
14-3-3σ = 14-3-3σ (UniProt P31947); experiment: competitive FP, FITC-HSPB6 phosphopeptide tracer; details: reference: unphosphorylated 18E6 peptide; sites T156
14-3-3ε = 14-3-3ε (UniProt P62258); experiment: competitive FP, FITC-HSPB6 phosphopeptide tracer; details: reference: unphosphorylated 18E6 peptide; sites T156

Row | Substance | stoichiometry N [1] | binding against the reference (14-3-3η) | binding against the reference (14-3-3ζ) | binding against the reference (14-3-3γ) | binding against the reference (14-3-3β) | binding against the reference (14-3-3τ) | binding against the reference (14-3-3σ) | binding against the reference (14-3-3ε)
1 | phosphorylated 14-3-3ζ-18E6 chimera (14-3-3ζ∆C-GGGG-18E6 PBM) (from UniProt P63104 1-229) | 2 |  |  |  |  |  |  | 
2 | HPV18 E6 (18E6) (from UniProt P06463) p18E6 peptide |  | gained | gained | gained | gained | gained | gained | gained
